Experimental data: publication PMC11407766, “OsNF-YB7 inactivates OsGLK1 to inhibit chlorophyll biosynthesis in rice embryo”

T1: OsNF-YB7-His (Oryza sativa, UniProt A6BLV7 1-254)
T1 sequence: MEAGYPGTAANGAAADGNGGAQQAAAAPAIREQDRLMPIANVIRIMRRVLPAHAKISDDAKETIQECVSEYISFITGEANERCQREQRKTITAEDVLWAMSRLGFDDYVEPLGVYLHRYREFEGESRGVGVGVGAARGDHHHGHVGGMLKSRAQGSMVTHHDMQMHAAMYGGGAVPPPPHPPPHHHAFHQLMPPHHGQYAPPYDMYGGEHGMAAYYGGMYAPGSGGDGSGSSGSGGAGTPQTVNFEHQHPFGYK

T2: OsGLK1-MBP (Oryza sativa, UniProt Q5Z5I4 1-455)
T2 sequence: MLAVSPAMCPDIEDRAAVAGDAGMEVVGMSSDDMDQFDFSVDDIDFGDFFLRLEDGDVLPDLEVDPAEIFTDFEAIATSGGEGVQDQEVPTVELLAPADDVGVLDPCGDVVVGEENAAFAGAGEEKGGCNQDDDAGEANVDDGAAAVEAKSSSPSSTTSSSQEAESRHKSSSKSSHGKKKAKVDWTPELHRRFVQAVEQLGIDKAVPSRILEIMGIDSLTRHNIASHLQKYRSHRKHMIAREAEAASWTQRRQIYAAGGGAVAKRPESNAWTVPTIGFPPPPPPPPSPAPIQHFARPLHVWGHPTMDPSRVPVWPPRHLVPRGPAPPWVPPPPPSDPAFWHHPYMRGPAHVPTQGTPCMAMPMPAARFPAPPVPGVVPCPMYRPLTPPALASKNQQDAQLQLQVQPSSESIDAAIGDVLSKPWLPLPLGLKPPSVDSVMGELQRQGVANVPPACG

B1: OsLHCB4 promoter probe (dsDNA)
DNA 1: CCCAATCCCAGCCCTCCACGTGTCACCAACCCCATGGC
DNA 2: GCCATGGGGTTGGTGACACGTGGAGGGCTGGGATTGGG
B2: OsGLK1 promoter probe (dsDNA)
DNA 1: TTTTGCAGAAGCGACCAAGCTGCACTTGCGCTCGCGGACAAGGCAACCCA
DNA 2: TGGGTTGCCTTGTCCGCGAGCGCAAGTGCAGCTTGGTCGCTTCTGCAAAA
B3: OsPORA promoter probe (dsDNA)
DNA 1: TACGAAAAAATATCCCACCACGTGTCGCTTTCACAGGACAAT
DNA 2: ATTGTCCTGTGAAAGCGACACGTGGTGGGATATTTTTTCGTA

Assays:
OsNF-YB7-His = molecular target: T1, OsNF-YB7-His; experiment: EMSA; Beyotime EMSA/Gel-Shift kit (GS009), manufacturer's conditions; 2 or 4 uM protein in Figure 6G; buffer, salt, pH and temperature not stated; conditions: protein: recombinant, tags: His (pET-28a), blunt
OsGLK1-MBP = molecular target: T2, OsGLK1-MBP; experiment: as above; conditions: protein: recombinant; tags: MBP (pMAL-c5X); label: biotin (3' hydroxyl end of both strands); blunt
[1] = label: biotin (3' hydroxyl end of both strands)

Binder	binding result (OsNF-YB7-His; [1])	binding result (OsGLK1-MBP)	binding result (OsNF-YB7-His; label: biotin)
B1	binds	binds	
B2			no binding
B3	binds	binds	
